Test results published in US12497461B2, “Human NTCP-binding antibody capable of inhibiting infection of hepatitis B virus (HBV) to human hepatocytes” (priority 2019, dated 2025).

Legend:
[1] = format: in vivo, human hepatocyte chimeric mouse (uPA/SCID); conditions: administration group; highest at HBV inoculation, decreased on and after the first week
Procedure: Preparation of uPA/SCID mice and transplantation of human hepatocytes were carried out in accordance with the report (Tateno C. et al., Am. J. Pathol., 165: 901-912, 2004). To all mice, human hepatocytes taken from the same donor were transplanted. Twenty-three mice, which are obtained by replacing 90% or more of the liver tissue with human hepatocytes by transplantation, were used in the experiment. To these mice, human serum containing 10^3 copies of HBV was administered (inoculated) through the tail vein. One day before and two days after HBV inoculation, 2.0 mg of purified N6HB426-20 antibody was intravenously injected. On Day 7, 14, and 21 after the HBV inoculation, 1.0 mg of the same antibody was intraperitoneally injected. As a control experiment, the same dose of normal mouse IgG antibody (Normal Mouse IgG, Whole Molecule, Purified, FUJIFILM Wako Pure Chemical Corporation) was injected in the same manner. A single mouse died on Day 0 after administration was excluded from the experiment. […]
For quantification of HBV-DNA, 10 μL of mouse serum was used. […] The serum HBV-DNA level was measured by a real-time PCR method using cobas 6800 System (Roche Diagnostics KK, Tokyo, Japan). In this measurement method, the lower limit of quantification was 3.61 log copies/mL. Mouse serum (10 μL) was diluted 30 folds with PBS and bile acid was measured.

[2] = target: T1, human NTCP triple mutant (YDD146, 149, and 152AAA) (Homo sapiens, UniProt Q14973, D149A/D152A/Y146A); assay: Antibody binding to NTCP mutant (epitope mapping); conditions: FIG. 5B
T1 construct: expressed in transfected cells; host or cells: HepG2 or Huh7 cells, lentiviral transduction
T1 sequence (Q14973 1-349 Y146A/D149A/D152A): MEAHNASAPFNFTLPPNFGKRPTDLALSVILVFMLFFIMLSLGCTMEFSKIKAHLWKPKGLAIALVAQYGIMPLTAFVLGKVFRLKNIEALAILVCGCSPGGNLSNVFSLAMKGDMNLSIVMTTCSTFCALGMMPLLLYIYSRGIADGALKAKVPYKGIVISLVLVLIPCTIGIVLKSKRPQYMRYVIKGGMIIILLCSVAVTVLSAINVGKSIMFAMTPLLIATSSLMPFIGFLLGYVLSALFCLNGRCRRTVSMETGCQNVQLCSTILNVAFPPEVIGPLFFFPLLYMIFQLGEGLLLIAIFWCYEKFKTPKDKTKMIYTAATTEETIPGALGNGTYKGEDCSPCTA
Procedure: (§1) To establish NTCP expression cells, HepG2 cells or Huh7 cells were infected with a lentiviral vector having a nucleic acid encoding a wild-type NTCP or each of NTCP mutants. Forty-eight hours after infection, the cells were subjected to an immunofluorescence assay or a viral infection assay.
(§2) Huh7 cells expressing a wild-type NTCP or each of the NTCP mutants were fixed with 4% paraformaldehyde, and then, a permeation treatment with 0.3% Triton X-100 was performed. Each of the NTCPs was detected by using N6HB426-20 antibody or HE1-9-10 antibody (dilution ratio: 1:200) and an Alexa Fluor488-conjugate goat anti-mouse IgG antibody (secondary antibody) (Thermo Fisher Scientific) (dilution ratio: 1:1000). Imaging of the cells was carried out by use of a laser scanning confocal microscope using FLUOVIEW fv1000 and IX73 (OLYMPAS).
(§3) In this manner, the relationship with a region important for HBV infection was clarified. Sensitivity to HBV infection, a change in inhibitory activity of the antibody and contribution of a predetermined amino acid residue to FACS analysis were evaluated by alanine scanning method and use of an NTCP mutant transfectant. […] However, both ends of the amino acid residues at positions 276-277 (i.e., amino acid residues at positions 274-275 and 278-279) serve as an epitope involved in HBV infection. […] The phenomenon was further precisely analyzed. […]

[3] = target: T2, human NTCP Y146A mutant (Homo sapiens, UniProt Q14973, Y146A); assay: Antibody binding to NTCP mutant (epitope mapping); conditions: FIG. 5A, left
T2 construct: expressed in transfected cells; host or cells: HepG2 or Huh7 cells, lentiviral transduction
T2 sequence (Q14973 1-349 Y146A): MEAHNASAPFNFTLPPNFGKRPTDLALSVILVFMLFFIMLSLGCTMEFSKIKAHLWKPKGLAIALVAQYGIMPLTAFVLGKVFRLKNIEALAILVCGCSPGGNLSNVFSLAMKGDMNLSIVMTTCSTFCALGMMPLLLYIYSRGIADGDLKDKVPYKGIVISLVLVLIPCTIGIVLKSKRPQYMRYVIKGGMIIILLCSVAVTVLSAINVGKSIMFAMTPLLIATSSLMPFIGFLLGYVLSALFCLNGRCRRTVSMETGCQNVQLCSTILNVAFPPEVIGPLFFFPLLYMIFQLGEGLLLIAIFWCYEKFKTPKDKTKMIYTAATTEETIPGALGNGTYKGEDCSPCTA
Procedure: as §1, §2, §3

[4] = test system: HBV / NTCP double mutant (PE276, 277AA); assay: HBV infection of cells expressing NTCP double mutant in the presence of antibody; format: cell-based, hepatitis B virus (HBV); conditions: FIG. 7
From the text: as §1

B1: N6HB426-20 antibody: anti-human NTCP monoclonal antibody from a sub-clone of N6HB426 hybridoma; VH SEQ ID NO: 3, VL SEQ ID NO: 4 (antibody, V domains shown)
VH: QVQLQQSGAELVKPGASVKLSCKASDFTFTEYTIHWIKQMSGQGLEWIGWFYPGSGDIKYSEKFKDKATLTADKSSSTVYMELNRLTSEDSAVYFCARHMRDFRGFYYGRFYFDYWGQGTTLTVSS
VL: EIVLTQSPAIMSASPGEKVTITCRASSSVSSSYLHWYQQKSGVSPKLWIYSTSNLASGVPARFSGSGSGTSYSLTINSVEAEDAATYYCQQYSGYRWTFGGGTTLEIKRA
modifications: N6HB426 antibody heavy chain variable region; N6HB426 antiibody light chain variable region
bile acid level in the sera [1]: transient increase | binding to triple mutant (YDD146, 149, and 152AAA) [2]: weak binding | binding to single mutant Y146A [3]: significantly low binding | inhibition of HBV infection of cells expressing double mutant (PE276, 277AA) [4]: failed to be inhibited
